Data taken from PMC5477506.
One block for each substance: values may come before it.

Key:
[1] = target: Se-Met SaTRIC mutant (L148M) (Sulfolobus acidocaldarius); assay: crystal structure; SaTRIC purified in DM, crystallised in lipid cubic phase (monoolein); lattices P6(3), P321 and R32, one molecule per asymmetric unit, trimer about the crystallographic three-fold axis
[2] = target: Se-Met CpTRIC (Colwellia psychrerythraea 34H); assay: crystal structure; Se-Met CpTRIC in octylmaltoside, crystallised from detergent micelles (38% PEG400, 0.1 M NaCl, 0.1 M CdCl2, 0.1 M Tris-HCl pH 8.5); space group R32, one protomer per asymmetric unit
[3] = target: SaTRIC, prokaryotic TRIC homologue from the archaeon Sulfolobus acidocaldarius, wild type (Sulfolobus acidocaldarius); assay: cross-linking; purified protein in DDM (around 1 mg/ml in 30 ul) with glutaraldehyde (0, 0.00005%, 0.0001%, 0.0005%, 0.001%) at room temperature for 8 h; quenched with 50 mM Tris-Cl pH 8.0; 12% SDS-PAGE
[4] = target: SaTRIC, prokaryotic TRIC homologue from the archaeon Sulfolobus acidocaldarius, wild type (Sulfolobus acidocaldarius); assay: SEC-MALS; analytical size-exclusion chromatography in detergent-containing mobile phases; multi-angle light scattering with refractive index detection used to analyse the oligomeric state
[5] = target: SaTRIC, prokaryotic TRIC homologue from the archaeon Sulfolobus acidocaldarius, wild type (Sulfolobus acidocaldarius); assay: crystal structure; SaTRIC purified in DM, crystallised in lipid cubic phase (monoolein); lattices P6(3), P321 and R32, one molecule per asymmetric unit, trimer about the crystallographic three-fold axis
[6] = target: CpTRIC, prokaryotic TRIC homologue from the bacterium Colwellia psychrerythraea (Colwellia psychrerythraea 34H); assay: cross-linking; purified protein in DDM (around 1 mg/ml in 30 ul) with glutaraldehyde (0, 0.00005%, 0.0001%, 0.0005%, 0.001%) at room temperature for 8 h; quenched with 50 mM Tris-Cl pH 8.0; 12% SDS-PAGE
[7] = target: CpTRIC, prokaryotic TRIC homologue from the bacterium Colwellia psychrerythraea (Colwellia psychrerythraea 34H); assay: SEC-MALS; analytical size-exclusion chromatography in detergent-containing mobile phases; multi-angle light scattering with refractive index detection used to analyse the oligomeric state

stoichiometry N [1]: 3
Substance: Se-Met SaTRIC mutant (L148M) (natural protein)

stoichiometry N [2]: 3
Substance: Se-Met CpTRIC (natural protein)

stoichiometry N [3]: 3 | stoichiometry N [4]: 3 | stoichiometry N [5]: 3
Substance: SaTRIC, prokaryotic TRIC homologue from the archaeon Sulfolobus acidocaldarius, wild type (natural protein)

stoichiometry N [6]: 3 | stoichiometry N [7]: 3
Substance: CpTRIC, prokaryotic TRIC homologue from the bacterium Colwellia psychrerythraea (natural protein)
